Test results: paper PMC10421740, “A universal deep-learning model for zinc finger design enables transcription factor reprogramming”

Experiments:
[1] = target: ZFN pair Astr 24ABC + Astr 24FED (synthetic construct, UniProt P14870;P14870 384-579;384-579); test: Zn; U2OS eGFP disruption, 3 days after nucleofection; settings: tags: N-terminal 3xFLAG and SV40 NLS (kept in the assay, left out here); copies: 1;1
[2] = target: ZFN pair Astr 29ABC + Astr 29FED (synthetic construct, UniProt P14870;P14870 384-579;384-579); test: as above; settings: tags: N-terminal 3xFLAG and SV40 NLS (kept in the assay, left out here); copies: 1;1
[3] = target: ZFN pair Astr 23ABC + Astr 23FED (synthetic construct, UniProt P14870;P14870 384-579;384-579); test: as above; settings: tags: N-terminal 3xFLAG and SV40 NLS (kept in the assay, left out here); copies: 1;1
[4] = target: ZFN pair Astr 27ABC + Astr 27FED (synthetic construct, UniProt P14870;P14870 384-579;384-579); test: as above; settings: tags: N-terminal 3xFLAG and SV40 NLS (kept in the assay, left out here); copies: 1;1
[5] = target: ZFN pair Astr 26ABC + Astr 26FED (synthetic construct, UniProt P14870;P14870 384-579;384-579); test: as above; settings: tags: N-terminal 3xFLAG and SV40 NLS (kept in the assay, left out here); copies: 1;1
[6] = target: ZFN pair Astr 31ABC + Astr 31FED (synthetic construct, UniProt P14870;P14870 384-579;384-579); test: as above; settings: tags: N-terminal 3xFLAG and SV40 NLS (kept in the assay, left out here); copies: 1;1
[7] = target: ZFN pair Astr 1ABC + Astr 1FED (synthetic construct, UniProt P14870;P14870 384-579;384-579); test: as above; settings: tags: N-terminal 3xFLAG and SV40 NLS (kept in the assay, left out here); copies: 1;1
[8] = target: ZFN pair Astr 10ABC + Astr 10FED (synthetic construct, UniProt P14870;P14870 384-579;384-579); test: as above; settings: tags: N-terminal 3xFLAG and SV40 NLS (kept in the assay, left out here); copies: 1;1
[9] = target: ZFN pair Astr 28ABC + Astr 28FED (synthetic construct, UniProt P14870;P14870 384-579;384-579); test: as above; settings: tags: N-terminal 3xFLAG and SV40 NLS (kept in the assay, left out here); copies: 1;1
[10] = target: ZFN pair Astr 2ABC + Astr 2FED (synthetic construct, UniProt P14870;P14870 384-579;384-579); test: as above; settings: tags: N-terminal 3xFLAG and SV40 NLS (kept in the assay, left out here); copies: 1;1
[11] = target: ZIM3 reprogrammed with array Tet1 For (synthetic construct, UniProt Q96PE6 1-166); test: Zn; HEK293T, 7x tetO CMV eGFP reporter
[12] = target: ZIM3 reprogrammed with array Tet2 For (synthetic construct, UniProt Q96PE6 1-166); test: Zn; HEK293T, 7x tetO CMV eGFP reporter
[13] = target: T1, KLF6 reprogrammed with array Tet2 For (synthetic construct, UniProt Q99612 1-199); test: Zn; HEK293T, 7x tetO minimal CMV GFP reporter
T1 chain: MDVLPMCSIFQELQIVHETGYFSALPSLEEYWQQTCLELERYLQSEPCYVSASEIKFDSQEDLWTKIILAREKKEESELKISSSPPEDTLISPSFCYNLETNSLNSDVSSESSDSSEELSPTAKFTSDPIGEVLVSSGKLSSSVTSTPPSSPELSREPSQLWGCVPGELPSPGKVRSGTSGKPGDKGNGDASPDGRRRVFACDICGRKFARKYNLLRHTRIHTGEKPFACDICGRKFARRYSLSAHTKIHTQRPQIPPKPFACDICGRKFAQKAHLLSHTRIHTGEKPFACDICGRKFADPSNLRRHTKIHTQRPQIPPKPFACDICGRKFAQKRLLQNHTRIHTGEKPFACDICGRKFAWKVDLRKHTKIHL

[14] = target: T2, KLF6 reprogrammed with array Tet1 For (synthetic construct, UniProt Q99612 1-199); test: Zn; HEK293T, 7x tetO minimal CMV GFP reporter
T2 chain: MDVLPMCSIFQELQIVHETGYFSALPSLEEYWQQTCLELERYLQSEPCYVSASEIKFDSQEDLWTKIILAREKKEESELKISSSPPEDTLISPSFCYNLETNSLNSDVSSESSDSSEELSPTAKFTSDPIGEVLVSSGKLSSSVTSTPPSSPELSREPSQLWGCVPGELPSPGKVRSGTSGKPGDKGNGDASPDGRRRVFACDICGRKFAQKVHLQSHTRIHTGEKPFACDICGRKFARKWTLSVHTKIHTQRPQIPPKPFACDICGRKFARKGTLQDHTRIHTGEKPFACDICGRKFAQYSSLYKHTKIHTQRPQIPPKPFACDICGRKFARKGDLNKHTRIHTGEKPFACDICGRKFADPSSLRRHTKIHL

[15] = target: ZFN pair Astr 30ABC + Astr 30FED (synthetic construct, UniProt P14870;P14870 384-579;384-579); test: Zn; U2OS eGFP disruption, 3 days after nucleofection; settings: tags: N-terminal 3xFLAG and SV40 NLS (kept in the assay, left out here); copies: 1;1
[16] = target: ZFN pair Astr 22ABC + Astr 22FED (synthetic construct, UniProt P14870;P14870 384-579;384-579); test: as above; settings: tags: N-terminal 3xFLAG and SV40 NLS (kept in the assay, left out here); copies: 1;1
[17] = target: ZFN pair Astr 12ABC + Astr 12FED (synthetic construct, UniProt P14870;P14870 384-579;384-579); test: as above; settings: tags: N-terminal 3xFLAG and SV40 NLS (kept in the assay, left out here); copies: 1;1
[18] = target: ZFN pair Astr 20ABC + Astr 20FED (synthetic construct, UniProt P14870;P14870 384-579;384-579); test: as above; settings: tags: N-terminal 3xFLAG and SV40 NLS (kept in the assay, left out here); copies: 1;1
[19] = target: ZFN pair Astr 18ABC + Astr 18FED (synthetic construct, UniProt P14870;P14870 384-579;384-579); test: as above; settings: tags: N-terminal 3xFLAG and SV40 NLS (kept in the assay, left out here); copies: 1;1
[20] = target: ZFN pair Astr 25ABC + Astr 25FED (synthetic construct, UniProt P14870;P14870 384-579;384-579); test: as above; settings: tags: N-terminal 3xFLAG and SV40 NLS (kept in the assay, left out here); copies: 1;1

Chain of ZIM3 reprogrammed with array Tet2 For (Q96PE6 other isoform, or with tags, fused parts or gaps): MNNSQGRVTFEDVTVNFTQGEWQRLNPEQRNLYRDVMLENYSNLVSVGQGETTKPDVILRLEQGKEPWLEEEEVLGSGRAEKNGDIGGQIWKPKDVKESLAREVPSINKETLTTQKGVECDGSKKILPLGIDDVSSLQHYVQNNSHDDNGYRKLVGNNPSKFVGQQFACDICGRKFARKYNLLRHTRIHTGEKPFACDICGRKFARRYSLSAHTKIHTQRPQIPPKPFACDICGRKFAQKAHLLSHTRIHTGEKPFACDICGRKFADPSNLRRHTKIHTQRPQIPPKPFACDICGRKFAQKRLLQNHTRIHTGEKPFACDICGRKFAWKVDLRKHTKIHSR
Chain of ZFN pair Astr 30ABC + Astr 30FED (P14870 other isoform, or with tags, fused parts or gaps, chain 1 of 2): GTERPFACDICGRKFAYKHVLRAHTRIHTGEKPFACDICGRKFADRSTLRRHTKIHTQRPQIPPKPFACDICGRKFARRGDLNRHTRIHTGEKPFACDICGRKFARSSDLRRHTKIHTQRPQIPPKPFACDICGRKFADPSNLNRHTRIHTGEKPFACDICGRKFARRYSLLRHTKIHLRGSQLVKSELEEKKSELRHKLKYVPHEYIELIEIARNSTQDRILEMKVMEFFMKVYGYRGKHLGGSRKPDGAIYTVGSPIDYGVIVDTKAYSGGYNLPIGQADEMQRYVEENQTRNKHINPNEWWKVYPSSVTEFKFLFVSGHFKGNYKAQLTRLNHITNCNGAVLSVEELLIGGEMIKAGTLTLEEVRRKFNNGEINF
Chain of ZFN pair Astr 30ABC + Astr 30FED (P14870 other isoform, or with tags, fused parts or gaps, chain 2 of 2): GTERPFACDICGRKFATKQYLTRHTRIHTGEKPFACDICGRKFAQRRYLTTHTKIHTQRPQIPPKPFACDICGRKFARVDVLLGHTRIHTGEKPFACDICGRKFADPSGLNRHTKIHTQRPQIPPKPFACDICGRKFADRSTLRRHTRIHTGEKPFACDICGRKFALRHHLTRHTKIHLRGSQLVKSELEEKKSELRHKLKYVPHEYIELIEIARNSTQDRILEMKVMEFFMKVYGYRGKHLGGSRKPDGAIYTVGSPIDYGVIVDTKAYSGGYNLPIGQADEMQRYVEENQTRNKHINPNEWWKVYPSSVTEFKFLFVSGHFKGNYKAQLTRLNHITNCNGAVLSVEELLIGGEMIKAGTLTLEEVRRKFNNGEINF
Chain of ZFN pair Astr 28ABC + Astr 28FED (P14870 other isoform, or with tags, fused parts or gaps, chain 1 of 2): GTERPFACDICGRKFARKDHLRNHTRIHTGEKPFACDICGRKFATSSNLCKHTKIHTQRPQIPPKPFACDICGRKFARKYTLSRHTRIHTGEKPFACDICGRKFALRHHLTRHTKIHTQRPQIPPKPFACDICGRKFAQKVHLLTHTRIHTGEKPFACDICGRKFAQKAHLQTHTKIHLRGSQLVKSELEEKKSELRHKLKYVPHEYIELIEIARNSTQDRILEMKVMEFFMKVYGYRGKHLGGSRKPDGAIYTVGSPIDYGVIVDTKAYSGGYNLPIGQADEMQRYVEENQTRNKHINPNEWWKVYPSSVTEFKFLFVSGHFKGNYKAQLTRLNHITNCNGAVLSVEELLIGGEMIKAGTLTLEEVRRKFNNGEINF
Chain of ZFN pair Astr 28ABC + Astr 28FED (P14870 other isoform, or with tags, fused parts or gaps, chain 2 of 2): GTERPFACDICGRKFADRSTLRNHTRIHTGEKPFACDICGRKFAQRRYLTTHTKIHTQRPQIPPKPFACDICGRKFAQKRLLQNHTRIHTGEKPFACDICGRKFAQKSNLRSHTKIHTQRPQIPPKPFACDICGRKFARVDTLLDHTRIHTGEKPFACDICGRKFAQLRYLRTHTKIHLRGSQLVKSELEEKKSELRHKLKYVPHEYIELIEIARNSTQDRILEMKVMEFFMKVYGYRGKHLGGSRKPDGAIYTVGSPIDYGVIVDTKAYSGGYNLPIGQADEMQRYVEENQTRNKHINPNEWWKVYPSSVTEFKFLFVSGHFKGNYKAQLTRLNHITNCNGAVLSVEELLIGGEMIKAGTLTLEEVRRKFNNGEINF
Chain of ZFN pair Astr 2ABC + Astr 2FED (P14870 other isoform, or with tags, fused parts or gaps, chain 1 of 2): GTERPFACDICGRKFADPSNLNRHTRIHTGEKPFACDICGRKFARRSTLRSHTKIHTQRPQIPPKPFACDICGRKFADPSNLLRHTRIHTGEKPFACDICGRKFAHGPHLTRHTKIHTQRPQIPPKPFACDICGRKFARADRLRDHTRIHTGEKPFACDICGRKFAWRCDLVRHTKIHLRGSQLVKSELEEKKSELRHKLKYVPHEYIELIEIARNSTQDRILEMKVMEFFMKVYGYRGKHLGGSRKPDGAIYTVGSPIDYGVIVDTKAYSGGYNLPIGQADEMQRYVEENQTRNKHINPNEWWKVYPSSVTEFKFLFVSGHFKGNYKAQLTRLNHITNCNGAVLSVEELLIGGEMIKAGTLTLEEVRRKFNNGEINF
Chain of ZFN pair Astr 2ABC + Astr 2FED (P14870 other isoform, or with tags, fused parts or gaps, chain 2 of 2): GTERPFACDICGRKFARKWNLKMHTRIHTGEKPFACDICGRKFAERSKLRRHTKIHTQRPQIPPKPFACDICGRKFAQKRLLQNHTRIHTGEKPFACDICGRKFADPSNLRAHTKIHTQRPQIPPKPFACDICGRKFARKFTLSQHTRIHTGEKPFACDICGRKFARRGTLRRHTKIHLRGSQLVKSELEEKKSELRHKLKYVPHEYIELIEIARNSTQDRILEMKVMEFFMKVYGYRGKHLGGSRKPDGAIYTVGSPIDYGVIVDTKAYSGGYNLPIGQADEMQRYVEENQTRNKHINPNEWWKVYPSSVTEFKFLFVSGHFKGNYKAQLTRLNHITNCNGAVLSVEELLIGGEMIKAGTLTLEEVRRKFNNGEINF
Chain of ZFN pair Astr 22ABC + Astr 22FED (P14870 other isoform, or with tags, fused parts or gaps, chain 1 of 2): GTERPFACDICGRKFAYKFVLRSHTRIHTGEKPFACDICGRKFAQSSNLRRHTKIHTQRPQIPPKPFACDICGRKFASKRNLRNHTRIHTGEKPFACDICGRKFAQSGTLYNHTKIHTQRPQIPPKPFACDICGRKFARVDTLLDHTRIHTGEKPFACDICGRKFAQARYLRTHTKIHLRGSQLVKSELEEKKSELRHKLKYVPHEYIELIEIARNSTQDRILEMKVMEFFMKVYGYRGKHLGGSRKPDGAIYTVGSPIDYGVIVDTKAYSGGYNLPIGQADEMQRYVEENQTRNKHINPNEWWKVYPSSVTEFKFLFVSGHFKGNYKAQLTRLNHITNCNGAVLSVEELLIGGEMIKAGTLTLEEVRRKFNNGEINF
Chain of ZFN pair Astr 22ABC + Astr 22FED (P14870 other isoform, or with tags, fused parts or gaps, chain 2 of 2): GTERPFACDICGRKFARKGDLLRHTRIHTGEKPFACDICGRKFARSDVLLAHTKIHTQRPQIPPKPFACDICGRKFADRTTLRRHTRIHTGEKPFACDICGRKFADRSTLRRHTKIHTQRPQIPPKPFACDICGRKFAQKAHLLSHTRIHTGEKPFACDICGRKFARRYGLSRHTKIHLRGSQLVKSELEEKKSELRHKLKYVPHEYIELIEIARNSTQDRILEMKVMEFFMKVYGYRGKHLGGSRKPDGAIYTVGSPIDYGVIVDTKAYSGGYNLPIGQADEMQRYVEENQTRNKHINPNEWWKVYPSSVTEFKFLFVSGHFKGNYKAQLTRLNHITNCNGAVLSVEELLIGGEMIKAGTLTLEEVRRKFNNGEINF
Chain of ZFN pair Astr 26ABC + Astr 26FED (P14870 other isoform, or with tags, fused parts or gaps, chain 1 of 2): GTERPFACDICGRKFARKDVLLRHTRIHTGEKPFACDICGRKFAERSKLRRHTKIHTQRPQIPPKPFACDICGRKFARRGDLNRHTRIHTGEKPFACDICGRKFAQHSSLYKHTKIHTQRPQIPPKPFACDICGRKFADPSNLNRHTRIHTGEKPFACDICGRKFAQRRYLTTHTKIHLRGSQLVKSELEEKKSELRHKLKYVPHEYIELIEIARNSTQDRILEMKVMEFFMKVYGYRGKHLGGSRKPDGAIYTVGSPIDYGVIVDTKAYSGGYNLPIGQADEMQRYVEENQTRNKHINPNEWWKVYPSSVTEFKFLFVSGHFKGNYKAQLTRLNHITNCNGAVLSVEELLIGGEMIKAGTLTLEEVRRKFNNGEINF
Chain of ZFN pair Astr 26ABC + Astr 26FED (P14870 other isoform, or with tags, fused parts or gaps, chain 2 of 2): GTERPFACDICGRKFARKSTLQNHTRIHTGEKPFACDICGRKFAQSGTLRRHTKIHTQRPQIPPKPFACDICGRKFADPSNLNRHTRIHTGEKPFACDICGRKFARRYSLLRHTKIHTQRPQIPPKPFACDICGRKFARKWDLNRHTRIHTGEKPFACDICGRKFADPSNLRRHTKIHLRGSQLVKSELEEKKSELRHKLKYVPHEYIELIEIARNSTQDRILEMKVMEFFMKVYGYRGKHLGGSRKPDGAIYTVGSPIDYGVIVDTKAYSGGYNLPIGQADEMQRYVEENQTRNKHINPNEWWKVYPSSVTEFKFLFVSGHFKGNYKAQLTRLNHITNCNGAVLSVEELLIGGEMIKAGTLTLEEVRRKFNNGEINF
Chain of ZFN pair Astr 29ABC + Astr 29FED (P14870 other isoform, or with tags, fused parts or gaps, chain 1 of 2): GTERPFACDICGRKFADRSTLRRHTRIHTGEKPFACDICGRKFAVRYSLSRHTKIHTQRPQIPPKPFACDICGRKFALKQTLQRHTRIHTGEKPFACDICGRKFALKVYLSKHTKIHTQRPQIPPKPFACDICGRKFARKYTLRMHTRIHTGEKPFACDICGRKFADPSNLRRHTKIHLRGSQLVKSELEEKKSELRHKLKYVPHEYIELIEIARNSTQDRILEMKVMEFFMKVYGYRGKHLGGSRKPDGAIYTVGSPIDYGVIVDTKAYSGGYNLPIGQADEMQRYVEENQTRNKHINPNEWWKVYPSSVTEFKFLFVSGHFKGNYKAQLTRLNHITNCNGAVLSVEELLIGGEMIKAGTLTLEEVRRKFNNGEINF
Chain of ZFN pair Astr 29ABC + Astr 29FED (P14870 other isoform, or with tags, fused parts or gaps, chain 2 of 2): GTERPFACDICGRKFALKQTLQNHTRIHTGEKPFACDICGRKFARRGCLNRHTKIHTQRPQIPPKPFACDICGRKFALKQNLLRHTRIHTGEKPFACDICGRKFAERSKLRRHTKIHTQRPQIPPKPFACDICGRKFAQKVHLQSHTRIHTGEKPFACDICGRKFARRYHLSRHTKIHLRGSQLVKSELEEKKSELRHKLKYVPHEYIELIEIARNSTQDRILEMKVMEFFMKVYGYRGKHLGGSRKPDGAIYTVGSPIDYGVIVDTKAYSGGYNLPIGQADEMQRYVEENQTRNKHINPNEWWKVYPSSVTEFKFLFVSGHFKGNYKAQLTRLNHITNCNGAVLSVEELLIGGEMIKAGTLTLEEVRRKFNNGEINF

B1: eGFP site 24 (12 fingers) (dsDNA)
DNA 1: ACAACGTCTATATCATGGCCGACAAGCAGAAGAACGGCATCAAGGTGA
DNA 2: TCACCTTGATGCCGTTCTTCTGCTTGTCGGCCATGATATAGACGTTGT
binding signal [1]: ~52 % GFP-negative cells (higher = more activity)

B2: eGFP site 29 (12 fingers) (dsDNA)
DNA 1: CGGCCACAAGTTCAGCGTGTCCGGCGAGGGCGAGGGCGATGCCACCTA
DNA 2: TAGGTGGCATCGCCCTCGCCCTCGCCGGACACGCTGAACTTGTGGCCG
binding signal [2]: ~40 % GFP-negative cells (higher = more activity)

B3: eGFP site 23 (12 fingers) (dsDNA)
DNA 1: GGCATCGACTTCAAGGAGGACGGCAACATCCTGGGGCACAAGCTGGAG
DNA 2: CTCCAGCTTGTGCCCCAGGATGTTGCCGTCCTCCTTGAAGTCGATGCC
binding signal [3]: ~35 % GFP-negative cells (higher = more activity)

B4: eGFP site 27 (12 fingers) (dsDNA)
DNA 1: TCCTGGGGCACAAGCTGGAGTACAACTACAACAGCCACAACGTCTATA
DNA 2: TATAGACGTTGTGGCTGTTGTAGTTGTACTCCAGCTTGTGCCCCAGGA
binding signal [4]: ~46 % GFP-negative cells (higher = more activity)

B5: eGFP site 26 (12 fingers) (dsDNA)
DNA 1: CCGCGCCGAGGTGAAGTTCGAGGGCGACACCCTGGTGAACCGCATCGA
DNA 2: TCGATGCGGTTCACCAGGGTGTCGCCCTCGAACTTCACCTCGGCGCGG
binding signal [5]: ~47 % GFP-negative cells (higher = more activity)

B6: eGFP site 31 (12 fingers) (dsDNA)
DNA 1: GGCAAGCTGACCCTGAAGTTCATCTGCACCACCGGCAAGCTGCCCGTG
DNA 2: CACGGGCAGCTTGCCGGTGGTGCAGATGAACTTCAGGGTCAGCTTGCC
binding signal [6]: ~72 % GFP-negative cells (higher = more activity)

B7: eGFP site 1 (12 fingers) (dsDNA)
DNA 1: GAGGAGCTGTTCACCGGGGTGGTGCCCATCCTGGTCGAGCTGGACGGC
DNA 2: GCCGTCCAGCTCGACCAGGATGGGCACCACCCCGGTGAACAGCTCCTC
binding signal [7]: ~85 % GFP-negative cells (higher = more activity)

B8: eGFP site 10 (12 fingers) (dsDNA)
DNA 1: TGCCACCTACGGCAAGCTGACCCTGAAGTTCATCTGCACCACCGGCAA
DNA 2: TTGCCGGTGGTGCAGATGAACTTCAGGGTCAGCTTGCCGTAGGTGGCA
binding signal [8]: ~78 % GFP-negative cells (higher = more activity)

B9: eGFP site 28 (12 fingers) (dsDNA)
DNA 1: TCCAGGAGCGCACCATCTTCTTCAAGGACGACGGCAACTACAAGACCC
DNA 2: GGGTCTTGTAGTTGCCGTCGTCCTTGAAGAAGATGGTGCGCTCCTGGA
binding signal [9]: ~32 % GFP-negative cells (higher = more activity)

B10: eGFP site 2 (12 fingers) (dsDNA)
DNA 1: AGTTCAGCGTGTCCGGCGAGGGCGAGGGCGATGCCACCTACGGCAAGC
DNA 2: GCTTGCCGTAGGTGGCATCGCCCTCGCCCTCGCCGGACACGCTGAACT
binding signal [10]: ~90 % GFP-negative cells (higher = more activity)

B11: tetO (dsDNA)
DNA 1: GTCTCTATCACTGATAGGGAGA
DNA 2: TCTCCCTATCAGTGATAGAGAC
binding signal [11]: ~0.68 normalised eGFP fluorescence (lower = more activity, repressor)
binding signal [12]: ~0.51 normalised eGFP fluorescence (lower = more activity, repressor)
binding signal [13]: ~15500 mean GFP fluorescence (higher = more activity)
binding signal [14]: ~9500 mean GFP fluorescence (higher = more activity)

B12: eGFP site 30 (12 fingers) (dsDNA)
DNA 1: CAAGGGCGAGGAGCTGTTCACCGGGGTGGTGCCCATCCTGGTCGAGCT
DNA 2: AGCTCGACCAGGATGGGCACCACCCCGGTGAACAGCTCCTCGCCCTTG
binding signal [15]: ~14 % GFP-negative cells (higher = more activity)

B13: eGFP site 22 (12 fingers) (dsDNA)
DNA 1: CAAGTTCAGCGTGTCCGGCGAGGGCGAGGGCGATGCCACCTACGGCAA
DNA 2: TTGCCGTAGGTGGCATCGCCCTCGCCCTCGCCGGACACGCTGAACTTG
binding signal [16]: ~73 % GFP-negative cells (higher = more activity)

B14: eGFP site 12 (12 fingers) (dsDNA)
DNA 1: TGACCCTGAAGTTCATCTGCACCACCGGCAAGCTGCCCGTGCCCTGGC
DNA 2: GCCAGGGCACGGGCAGCTTGCCGGTGGTGCAGATGAACTTCAGGGTCA
binding signal [17]: ~43 % GFP-negative cells (higher = more activity)

B15: eGFP site 20 (12 fingers) (dsDNA)
DNA 1: TCGAGCTGAAGGGCATCGACTTCAAGGAGGACGGCAACATCCTGGGGC
DNA 2: GCCCCAGGATGTTGCCGTCCTCCTTGAAGTCGATGCCCTTCAGCTCGA
binding signal [18]: ~42 % GFP-negative cells (higher = more activity)

B16: eGFP site 18 (12 fingers) (dsDNA)
DNA 1: ACATGAAGCAGCACGACTTCTTCAAGTCCGCCATGCCCGAAGGCTACG
DNA 2: CGTAGCCTTCGGGCATGGCGGACTTGAAGAAGTCGTGCTGCTTCATGT
binding signal [19]: ~71 % GFP-negative cells (higher = more activity)

B17: eGFP site 25 (12 fingers) (dsDNA)
DNA 1: GCGAGGGCGAGGGCGATGCCACCTACGGCAAGCTGACCCTGAAGTTCA
DNA 2: TGAACTTCAGGGTCAGCTTGCCGTAGGTGGCATCGCCCTCGCCCTCGC
binding signal [20]: ~39 % GFP-negative cells (higher = more activity)
